Numbering of substitutions follows the chain as printed. Names and notes keep the numbering of the source.
Key:
human OX40 on cells [1] = biological target: T1, human OX40 on cells (human, UniProt P43489 29-277); assay: cell-based or functional assay
T1 sequence (looked up): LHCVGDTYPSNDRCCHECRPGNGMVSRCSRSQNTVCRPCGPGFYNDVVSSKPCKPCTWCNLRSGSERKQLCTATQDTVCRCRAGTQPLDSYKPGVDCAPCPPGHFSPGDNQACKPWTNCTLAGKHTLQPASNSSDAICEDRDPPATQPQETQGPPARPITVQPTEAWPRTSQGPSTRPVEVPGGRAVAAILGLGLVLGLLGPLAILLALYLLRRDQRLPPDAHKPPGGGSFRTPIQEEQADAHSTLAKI

human OX40 on cells [2] = biological target: T1, human OX40 on cells; assay: cell-based or functional assay; remark: listed apart in the source
human OX40 on cells [3] = biological target: T1, human OX40 on cells; assay: cell-based or functional assay; remark: listed apart in the source
rat OX40-Fc = rat OX40-Fc (rat); assay: ELISA on coated rat OX40-Fc
rat OX40-Fc (rat), sequence (chain, as listed by the source limits assumed): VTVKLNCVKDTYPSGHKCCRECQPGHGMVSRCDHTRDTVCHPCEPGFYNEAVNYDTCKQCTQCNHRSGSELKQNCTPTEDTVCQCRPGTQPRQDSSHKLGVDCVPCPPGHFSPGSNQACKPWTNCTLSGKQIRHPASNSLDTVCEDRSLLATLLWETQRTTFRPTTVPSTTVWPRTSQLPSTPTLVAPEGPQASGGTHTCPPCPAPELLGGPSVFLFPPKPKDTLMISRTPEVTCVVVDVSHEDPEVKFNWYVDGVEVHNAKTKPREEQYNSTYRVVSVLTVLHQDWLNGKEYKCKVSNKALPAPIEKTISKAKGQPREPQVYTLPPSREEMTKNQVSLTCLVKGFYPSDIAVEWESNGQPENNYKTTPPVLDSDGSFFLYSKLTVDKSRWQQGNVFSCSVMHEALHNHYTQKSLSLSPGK
Protocol: (§1) These constructs were expressed in HEK293-EBNA1 cells and purified using protein A. Then, human and rat OX40-Fc were tested in ELISA and Biacore to determine antibody cross-reactivity. For the ELISA, 96 well-microtiter plates (Costar USA, distributor VWR AG, Nyon, Switzerland) were coated with 100 μl of recombinant human or rat OX40-Fc at 2 μg/ml in PBS. Plates were incubated overnight at 4° C. and were then blocked with PBS 2% BSA (Bovine Serum Albumine, PAA Laboratories, Pasching, Austria) at room temperature (RT) for one hour. The blocking solution was removed and the purified antibodies were added at 10 μg/ml in PBS 2% BSA. The plates were incubated at RT for 1 hour, then washed 5 times with PBS 0.01% Tween-20 (Sigma-Aldrich Chemie GmbH, Buchs, Switzerland). […] Plates were incubated for 1 hour at RT, washed 5 times with PBS 0.01% Tween-20 and the TMB substrate (Bio-rad Laboratories AG, Reinach, Switzerland) was added to the plates and the reaction stopped after 5 minutes by adding H₂SO₄. Absorbance was then read at 450 nm by a microplate reader (Biotek, USA; distributor: WITTEC AG, Littau, Switzerland). Biacore experiments were specifically conducted with Hexa-hzG3V9 and Hexa-hz1D10v1 which are dAb-Fc fusion proteins. […] Binding of human and cyno OX40-Fc molecules was determined by successively injecting these proteins on the 4 flow-paths (flow-path 1 and 3 being used as references) at a concentration of 200 nM and a flow rate of 30 uL/min for 240 seconds. Regeneration between the two injections was done using 3M MgCl2, at 30 uL/min for 60 seconds. Using these two approaches, human/rat OX40 binding was assessed (table 16).

human OX40-Fc = biological target: T2, human OX40-Fc (human); assay: ELISA on coated human OX40-Fc, antibody 10 µg/ml
T2 construct: also called recombinant human OX40-Fc; human OX40 (HHHH)
Protocol: as §1

human OX40 on cells [4] = biological target: T1, human OX40 on cells; assay: flow cytometry on JURKAT-NFkB-OX40 cells, detection anti-human Fc PE, geometric mean of fluorescence intensity
[5] = biological target: T3, recombinant DR3 molecule (R&D) (UniProt Q93038 25-199, limits assumed); assay: direct ELISA on coated recombinant DR3, detection streptavidin-HRP, absorbance 450 nm [panel DR3]
T3 sequence (looked up): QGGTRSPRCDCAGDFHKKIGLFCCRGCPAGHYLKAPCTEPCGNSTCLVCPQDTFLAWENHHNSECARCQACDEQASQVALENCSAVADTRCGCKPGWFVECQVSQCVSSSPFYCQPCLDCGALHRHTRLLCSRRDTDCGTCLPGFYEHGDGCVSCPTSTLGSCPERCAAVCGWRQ
Protocol: (§2) FIG. 13. A dose-response of various antibodies was incubated on various receptors, members of Tumor Necrosis Factor Receptor family, then detected with Streptavidin coupled with Horseradish Peroxidase enzyme. […] Each data point is the mean of duplicate values except for control curves that were performed in simplicate.
(§3) The experiment was conducted following the same protocol than previously described. […] These molecules were all coated at 2 μg/ml in PBS overnight at 4° C.

[6] = biological target: recombinant CD40 molecule (R&D) (UniProt P25942 21-193); assay: direct ELISA on coated recombinant CD40, detection streptavidin-HRP, absorbance 450 nm [panel CD40]
recombinant CD40 molecule (R&D), sequence (P25942 21-193 limits assumed): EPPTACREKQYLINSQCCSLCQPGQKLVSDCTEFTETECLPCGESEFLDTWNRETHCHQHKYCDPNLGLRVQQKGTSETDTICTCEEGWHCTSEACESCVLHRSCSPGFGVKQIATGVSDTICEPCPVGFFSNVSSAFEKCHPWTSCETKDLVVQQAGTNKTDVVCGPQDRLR
Protocol: as §2, §3

[7] = biological target: T4, recombinant GITR molecule (R&D) (UniProt Q9Y5U5 26-161); assay: direct ELISA on coated recombinant GITR, detection streptavidin-HRP, absorbance 450 nm [panel GITR]
T4 sequence (looked up): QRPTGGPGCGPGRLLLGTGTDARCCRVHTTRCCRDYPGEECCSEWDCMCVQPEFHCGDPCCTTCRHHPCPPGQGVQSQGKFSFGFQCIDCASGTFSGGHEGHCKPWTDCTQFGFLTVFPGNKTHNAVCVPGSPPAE
Protocol: as §2, §3

[8] = biological target: T5, recombinant DR6 molecule (R&D) (UniProt O75509 42-349, limits assumed); assay: direct ELISA on coated recombinant DR6, detection streptavidin-HRP, absorbance 450 nm [panel DR6]
T5 sequence (looked up): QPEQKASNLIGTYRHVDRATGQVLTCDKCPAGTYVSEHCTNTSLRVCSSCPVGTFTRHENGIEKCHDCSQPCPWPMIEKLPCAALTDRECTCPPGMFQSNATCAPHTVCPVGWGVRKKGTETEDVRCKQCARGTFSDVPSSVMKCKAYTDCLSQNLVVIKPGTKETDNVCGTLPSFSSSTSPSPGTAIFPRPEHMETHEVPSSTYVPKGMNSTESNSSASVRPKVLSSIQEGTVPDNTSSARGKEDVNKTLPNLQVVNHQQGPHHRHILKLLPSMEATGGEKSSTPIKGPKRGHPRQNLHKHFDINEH
Protocol: as §2, §3

[9] = biological target: T6, recombinant human OX40-his protein (human, UniProt P43489 29-214); assay: SPR, antibody captured on Protein A, OX40-his injected
T6 construct: Secreted via the native signal peptide, which lies within residues 1-214; also called Human OX40R-His; histidine tagged human OX40 receptor extracellular domain
T6 sequence: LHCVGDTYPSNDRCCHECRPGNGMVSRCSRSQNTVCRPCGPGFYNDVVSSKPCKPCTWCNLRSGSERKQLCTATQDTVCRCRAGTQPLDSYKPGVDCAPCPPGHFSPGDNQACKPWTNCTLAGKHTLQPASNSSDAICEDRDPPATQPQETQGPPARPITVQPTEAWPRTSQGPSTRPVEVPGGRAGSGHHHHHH
Protocol: (§4) Measurements were performed on CM5 sensor chips (Biacore 2000, GE Healthcare Europe GmbH, Cat. No: BR-1000-14) individually coupled with Protein A (Sigma, Buchs, Switzerland, Cat. No: P7837) using a commercial amine coupling kit (GE Healthcare Europe GmbH, Cat. No: BR-1000-50). 200-600 RUs of humanized antibody were captured. Dilution series of OX40-his were injected at a flow rate of 10 μl/min in HBS-EP buffer (GE Healthcare Europe GmbH, Cat. No: BR1001-88). After each binding event, the surface was regenerated with 10 μl of glycine buffer pH 1.5. Experimental data were processed using a 1:1 Langmuir model with local Rmax. The dissociation time was about 7 min. Measurements were performed in duplicates or triplicates and included zero-concentration samples for referencing. Both Chit and residual values were used to evaluate the quality of a fit between the experimental data and individual binding models.
Humanized antibody candidates were then assayed for their binding affinity by SPR and Fab thermal stability by DSC.

[10] = biological target: T6, recombinant human OX40-his protein; assay: as above; remark: listed apart in the source
Protocol: as §4
Finally, Surface Plasmon Resonance analyses were applied to control antibody variant affinities as described earlier.

[11] = biological target: T6, recombinant human OX40-his protein; assay: SPR (BIAcore 2000), antibody captured on Protein A, OX40-his injected
Protocol: SPR analysis was used to measure the association and dissociation rate constants for the binding kinetics of the anti-OX40 antibodies. The binding kinetics were measured on a BIAcore 2000 (BIAcore-GE Healthcare Europe GmbH, Glattbrugg, Switzerland) at room temperature and analyzed with the BiaEvaluation software (v4.1, GE Healthcare Europe GmbH).
as §4

human OX40 on cells [12] = biological target: T1, human OX40 on cells; assay: flow cytometry on HPB-ALL cells, 10 µg/ml antibody
Protocol: HPB-ALL cells (DSMZ, Braunschweig, Germany, Cat. No: ACC483) were used as a human OX40 positive cell line for FACS staining. HPB-ALL were maintained in RPMI 1640 supplemented with 10% FCS and 100 U/ml Penicillin and 100 μg/ml streptomycin. 4×10e5 HPB-ALL cells in FACS buffer (PBS supplemented with 1% BSA and 0.1% sodium azide) were incubated for 45 min on ice with the anti-OX40 antibody of interest kept at a concentration of 10 μg/ml An irrelevant human IgG1 was used as an isotype control; the cells were incubated with a 1/200 dilution of anti-Human Fc-PE (EBioscience, Vienna, Austria) for 45 min on ice. Cells were then washed again and resuspended in 200 μl FACS buffer. The relative mean fluorescence of each sample was measured on a FACSCalibur instrument (BD Biosciences, Allschwil, Switzerland).
A first set of 16 humanized antibodies of human gamma one isotype were prepared. These first humanized candidates were assessed for transient expression in HEK293E cells and binding to HB-ALL cell by flow cytometry (Table 7).

B1: recombinant human OX40L-Fc protein (Fc fusion, not shown: a dimerising Fc or GST; small tags and cut ends)
chain: QVSHRYPRIQSIKVQFTEYKKEKGFILTSQKEDEIMKVQNNSVIINCDGFYLISLKGYFSQEVNISLHYQKDEEPLFQLKKVRSVNSLMVASLTYKDKVYLNVTTDNTSLDDFHVNGGELILIHQNPGEFCVL
- % donor responder (>2), SEB assay, IL-2 release (human OX40 on cells [1]): 83%
- Mean, normalized IL-2 release, SEB assay (human OX40 on cells [1]): 4.26
- Mean (fold increase proliferation vs control), MLR assay (human OX40 on cells [2]): 1.54 fold
- donors reaching a 1.2 fold induction of CD4+CD25+ cells compared to SEB only (human OX40 on cells [3]): 67%

B2: 2H6 IgG1 (antibody)
heavy: not shown
light: DIQLTQSPSSLSASVGDRVTITCRASESVDNYGISFMNWFQQKPGKAPKLLIYAASNQKSGVPSRFSGSGSGTDFTLTISSLQPEDFATYFCQQSKEVPLTFGQGTKVEIKRTVAAPSVFIFPPSDEQLKSGTASVVCLLNNFYPREAKVQWKVDNALQSGNSQESVTEQDSKDSTYSLSSTLTLSKADYEKHKVYACEVTHQGLSSPVTKSFNRGEC
- binding result (rat OX40-Fc): no binding (tested: 10 µg/ml)
- binding result (human OX40-Fc): binds
- EC50 (read off the curve) (human OX40 on cells [4]): ~0.2 µg/mL
- binding result [5]: no binding (tested: 10 µg/ml)
- binding result [6]: no binding (tested: 10 µg/ml)
- binding result [7]: no binding (tested: 10 µg/ml)
- binding result [8]: no binding (tested: 10 µg/ml)

B3: 7H11 IgG1 (Humanized 7H11-VH2 N58K-D54E with 7H11 VL1) (antibody, V domains shown)
VH: QVQLVQSGAEVKKPGASVKVSCKASGYTFTRYYMHWVRQAPGQGLEWMGWIYPGEGSTKYAQKFQGRVTMTRDTSISTAYMELSRLRSDDTAVYYCAREYGNYDYWGQGTLVTVSS
VL: DIVMTQSPDSLAVSLGERATINCKSSQSLLNSGNQKNYLAWYQQKPGQPPKLLIYGASTRESGVPDRFSGSGSGTDFTLTISSLQAEDVAVYYCQNDHSYPYTFGQGTKLEIKR
notes: also called 7H11_v8 IgG1
- binding result (rat OX40-Fc): no binding (tested: 10 µg/ml)
- binding result [5]: no binding (tested: 10 µg/ml)
- binding result [6]: no binding (tested: 10 µg/ml)
- binding result [7]: no binding (tested: 10 µg/ml)
- binding result [8]: no binding (tested: 10 µg/ml)

B4: Humanized 7H11 VH2 V37M/VL1 (antibody, human IgG1, kappa, V domains shown)
VH: B3 VH with V37M, E55D, K59N
VL: B3 VL
notes: human IgG1, kappa
- Kd [9]: 2.87 nM

B5: Humanized 7H11-VH2 N58K-D54S (antibody, human IgG1, kappa, V domains shown)
VH: B3 VH with E55S
VL: B3 VL
notes: human IgG1, kappa; also called 7H11 VH D54S
- Kd [10]: 49 nM

B6: Humanized 7H11-VH2 N58K-D54T (antibody, human IgG1, kappa, V domains shown)
VH: B3 VH with E55T
VL: B3 VL
notes: human IgG1, kappa; also called 7H11 VH D54T
- Kd [10]: 32 nM

B7: Chimeric 7H11 IgG1 (antibody, V domains shown)
VH: QVQLQQSGPELVKPGASVKMSCKASGYTFTRYYIHWMNQRPGQGLEWIGWIYPGDGSTKYNEKFKGKTTLTADTSSSTAYMLLSSLTSEDSAIYFCAREYGNYDYWGQGTTVTVSS
VL: DIVMTQSPSSLSVSAGEKVTMSCKSSQSLLNSGNQKNYLAWYQQKPGQPPKLLIYGASTRESGVPDRFTGSGSGTDFTLTISSVQAEDLAVYYCQNDHSYPYTFGGGTKLEIK
notes: Mouse variable domains on human IgG1 heavy constant domains and human kappa constant domain; also called 7H11 (chimeric); chimeric 7H11 antibody
- Kd [9]: 50 nM
- Kd [11]: 50 nM
- koff [11]: 0.00066 s⁻¹
- kon [11]: 11600 M⁻¹ s⁻¹
- MFI (human OX40 on cells [12]): 132
